# Laboratory results published in US20120052007A1, “PERIPHERAL BLOOD SPARC BINDING ANTIBODIES AND USES THEREOF” (ABRAXIS BIOSCIENCE, LLC, priority 2010, published 2012).
# B1: SPARC: recombinant wild-type human SPARC (BIO1), exogenously administered (protein)
# chain: APQQEALPDETEVVEETVAEVTEVSVGANPVQVEVGEFDDGAEETEEEVVAENPCQNHHCKHGKVCELDENNTPMCVCQDPTSCPAPIGEFEKVCSNDNKTFDSSCHFFATKCTLEGTKKGHKLHLDYIGPCKYIPPCLDSELTEFPLRMRDWLKNVLVTLYERDEDNNLLTEKQKLRVKKIHENEKRLEAGDHPVELLARDFEKNYNMYIFPVHWQFGQLDQHPIDGYLSHTELAPLRAPLIPMEHCTTRFFETCDLDNDKYIALDEWAGCFGIKQKDIDKDLVI
# Legend:
# [1] = system: HT29 (colon)
# Excerpt: Female and male athymic NCr-nu mice between 5 and 6 weeks of age weighing approximately 20 g were purchased from Harlan, Inc. (Madison, Wis., USA). Human cancer cells HT29 (colon), PC3 (prostate), and MDA-MB-231 (breast) were propagated in cell culture and implanted subcutaneously at one million cells per flank of female (for MDA-MB-231 and HT29) or male (for PC3 prostate tumor) nude mice and allowed to grow to approximately 60-100 mm^3 before treatment was initiated. Treatments included 5-fluorouracil (5FU), docetaxel (Taxotere®), albumin-bound paclitaxel (nab-paclitaxel), nab-paclitaxel plus suntinib malate (Sutent®), or nab-paclitaxel plus bevacizumab (Avastin®) with or without exogenously administered SPARC). Control animals for each xenograft were administered PBS. The longest (length) and shortest (width) tumor diameters (millimeter) and tumor depth were measured twice weekly. The tumor volume was calculated with the formula: tumor volume (mm3)=width×length×depth. Tumor growth inhibition (TGI) was defined as the percentage of tumor volume reduction compared with the control group at the time of euthanasia for the control animals. Tumor doubling time was defined as the time required for the tumor volume to double […]. Animal weights were measured twice weekly. Statistical analysis was performed using the Prism program (GraphPad, San Diego, Calif., USA). Analysis of variance (ANOVA) statistic was used to compare tumor growth curves.
# [2] = system: MDA-MB-231 (breast); assay: MDA-MB-231 breast cancer xenograft; assay type: in vivo, mice; settings: MDA-MB-231 xenograft, nab-paclitaxel 10 mg/kg, P<0.001 (FIG. 24C)
# Description: (§1) Control animals for each xenograft were administered PBS. […] Animal weights were measured twice weekly.
# (§2) These findings were further confirmed in the MDA-MB-231 breast cancer xenografts (FIG. 24C) and PC3 prostate cancer xenografts (FIG. 24D). […] In these experiments, nab-paclitaxel was dosed sub-optimally at 10 mg/kg, daily for five cycles.
# [3] = system: endothelial cell tubule formation; assay: TCS Cellworks AngioKit tubule formation assay; assay type: cell-based, human; settings: 11 days
# Excerpt: Next, the effect of SPARC on tubule formation was examined using the TCS cellworks human Angiokit model kit (TCS-ZHA-1000, TCS Cell Works Buckingham, UK). In this assay, the endothelial cells initially form small islands within the culture matrix. They subsequently begin to proliferate and then enter a migratory phase during which they move through the matrix to form threadlike tubule structures. These gradually join up (by 9-11 days) to form a network of anastomosing tubules which closely resembles a capillary bed.
# 24-well pre-seeded endothelial cell tissue culture plates containing early stage co-cultures (day 2-3) were used according to manufacturer's recommendations (TCS Cell Works, Buckingham, UK). The cultures were incubated at 37° C./5% CO2 for 11 days. Media on the cultures was changed with added test and control compounds on days 4, 7 and 9 after initial treatment, followed by fixation with 70% ethanol on day 11. Fixed cultures were subsequently stained as follows: Primary rabbit anti-CD31 antibody (Thermo Scientific) was diluted to a final concentration of 2 μg/mL in PBS/1% BSA blocking buffer. Then, 0.5 mL of diluted anti-CD31 antibody was added to each well and incubated for 1 h at 37° C. […]
# The number and lengths of tubules formed were then evaluated by light microscopy. […] Total vessel number, total tubule area and the number of branch points can be similarly determined.
# [4] = system: MDA-MB-435-Luc+; assay: MDA-MB-435-Luc+ orthotopic metastatic model; assay type: in vivo, mice
# Description: MDA-MB-435-Luc+ were implanted orthotopic in mammary fat pad (MFP) at 4×10^6 cells in 50% Matrigel and allowed to reach average tumor volume of 180 mm^3 before treatment. Treatments were: 2 cycles of 10 mg/kg nab-paclitaxel, 4 mg/kg SPARC, and bevacizumab biweekly. At appropriate time interval, the following organs were harvested for quantitation of metastasis: Proximal lymph nodes, contralateral lymph nodes, lungs, liver and brain. Statistical tests used included t-test and Mann Whitney-U.
# Mice were monitored 2-3 times a week and tumor growth was recorded. Mice were sorted when tumor volumes reached 180 mm^3, and the first cycle of treatment was administered. Seven rest days were given between the first and second cycle. Bevacizumab and SPARC were continually administered during the rest period. Weight was measured periodically throughout the study to assess toxic effects from the therapy.
# The following dosing schedules were followed: Control (Group 1); 10 mg/kg nab-paclitaxel daily for 3 to 5 cycles (Group 2); 4 mg/kg soluble SPARC (Bio 1) injected i.v. biweekly (Group 3); and 10 mg/kg nab-paclitaxel daily for two to five cycles and 4 mg/kg SPARC-biweekly (Group 4).
# Total metastatic burden was also calculated. It is presented as measured luciferase activity in tissue extracts expressed in RLU normalized per mg protein. All contralateral lymph nodes were negative for all groups. There were a few incidences of metastasis occurred in the proximal lymph node, liver and brain. […] Liver metastasis occurred somewhat frequently in the both control and SPARC groups (present in 3 mice in each group). There was also one control mouse that had brain metastasis.
# [5] = system: human umbilical cord vein endothelial cells (HUVEC); assay: HUVEC bead sprouting angiogenesis assay; assay type: cell-based; settings: 5 days
# Description: First, the effect of SPARC on sprouting was studied in an in vitro angiogenesis model system that was prepared using human umbilical cord vein endothelial cells (HUVEC) as described by Nakatsu et al (Methods Enzymol. 443:65-82 (2008)). Low passage HUVEC grown in M199 media supplemented with 10% FBS (Gibco, Carlsbad, Calif.) were switched to EGM-2 media (Clonetics, Walkersville, Md.) 2 days before beading. Cytodex 3 microcarrier beads (Amersham Pharmacia Biotech, Piscataway, N.J.) were hydrated and washed with PBS (pH 7.4). 1×10^6 HUVEC cells were incubated with 2500 hydrated and sterilized beads in EGM-2 medium for 4 hours at 37° C. for coating. The coated beads were next embedded in 2 mg/mL fibrinogen in PBS with 0.15 units/mL aprotinin at a concentration of 500 beads/mL. Next, 0.625 units/mL thrombin was added and 0.5 mL of the mixture was added to each well of a 24 well plate. The solution was allowed to clot at RT for 5 minutes and 37° C. for another 15 min. After clotting 20,000 lung fibroblast cells in EGM-2 media were seeded in each well. Either 1, 10 or 100 μg/mL BioI SPARC protein in PBS, or PBS without protein was added to the growth medium and cultures were maintained for 5 days until sprouting was evaluated by light microscopy. The number of tubes formed/bead and the morphology of sprouting HUVEC cells in the cultures were determined using image pro software (Media Cybernetics, Bethesda, Md.).
# [6] = system: PC3 (prostate); assay: PC3 prostate cancer xenograft; assay type: in vivo, mice; settings: nab-paclitaxel 10 mg/kg, P<0.001 (FIG. 24D)
# Description: as §1, §2
# [7] = system: recombinant human SPARC protein; assay: Tube Formation Assay (AngioKit) with SPARC and SPARC binding antibodies; assay type: cell-based; settings: 10 μg/mL recombinant human SPARC in the culture media
# Description: This assay was performed using the TCS Cellworks human AngioKit model kit (TCS-ZHA-1000, TCS Cell Works, Buckingham, UK) as described in Example 10 above. The media contained 10 μg/mL recombinant human SPARC protein. The media also contained 300 μg/mL of one of the above prepared mouse SPARC binding monoclonal antibodies (Imm12, Imm14, mHTI), or a control (mouse IgG).
# To examine the effect of SPARC on tubule formation, and interference with that function by SPARC binding monoclonal antibodies, the number of tubules formed and their length was evaluated by light microscopy.
molecule,measurement,setting,value
B1,impact of SPARC treatment on the nab-paclitaxel/bevacizumab combination,[1]; HT29 xenograft (FIG. 24B),minimal negative impact
same,Tumor growth inhibition (TGI),"[1]; HT29 xenograft, versus control group at euthanasia of control animals",35.4%
same,effect of SPARC administration on antitumor effects of nab-paclitaxel and suntinib,[2],significantly inhibited
same,angiogenic activity (tubule formation),[3]; high concentration of SPARC (100 μg/mL),significantly inhibited angiogenesis
same,angiogenic activity (tubule formation),[3]; low concentrations of SPARC (1 and 10 μg/mL),stimulate angiogenesis
same,tumor growth rate,[4]; MDA-MB-435-Luc+ mammary fat pad tumors,23.16±4.38 mm3/day
same,average tumor volume,[4]; in 63 days,1765 mm3
same,"lung metastatic burden, average RLU/mg total protein",[4]; luciferase activity in lung tissue extracts,31630±10820 RLU/mg total protein
same,mice positive for lung metastasis,"[4]; mouse, in vivo",9 of 9
same,mice with liver metastasis,"[4]; mouse, in vivo",3 mice
same,Tumor Volume on day 56,"[4]; mouse, in vivo, in mm³ (unit assumed)",1524
same,% Inhibition,[4]; tumor volume on day 56,35%
same,seeded HUVEC/beads that had developed sprouts,[5]; 1 μg/mL SPARC,less than 50%
same,average sprouts/bead,[5]; 10 μg/mL SPARC,0.9 sprouts/bead
same,average sprouts/bead,[5]; 100 μg/mL SPARC,1.9 sprouts/bead
same,effect of SPARC administration on antitumor effects of nab-paclitaxel and bevacizumab,[6],significantly inhibited
same,tubule formation,[7],formation of numerous long tubules
